For the experiment, the target named is PsFcγRIIa (recombinant soluble human FcγRIIa protein produced in baculovirus-infected Sf-21 cells) (human) (UniProt P12318). Kind of experiment: SPR competition; monomeric IgG (0 to 2 mg/ml) premixed with 50 ug/ml PsFcγRIIa, passed over immobilised IgG1.

Consider “monomeric IgG (Sandaglobulin, available from Sandoz) (antibody)”, for which the molar excess giving complete inhibition (fold molar excess) was found to be 6.

Values taken from patent publication US20060057144A1.
